Source: US20150231203A1 (UTI LIMITED PARTNERSHIP, published 2015)
No end group written: not given here.

B1: USP5 (mouse, endogenous, from brain, DRG or dorsal horn lysate) (enzyme, UniProt P56399 2-858, looked up)
chain: AELSEEALLSVLPTIRVPKAGDRVHKDECAFSFDTPESEGGLYICMNTFLGFGKQYVERHFNKTGQRVYLHLRRTRRPKEEDTSAGTGDPPRKKPTRLAIGVEGGFDLTEDKFEFDEDVKIVILPDYLEIARDGLGGLPDIVRDRVTSAVEALLSADSASRKQEVQAWDGEVRQVSKHAFNLKQLDNPARIPPCGWKCSKCDMRENLWLNLTDGSILCGRRYFDGSGGNNHAVEHYRETGYPLAVKLGTITPDGADVYSYDEDDMVLDPSLAEHLSHFGIDMLKMQKTDKTMTELEIDMNQRIGEWELIQESGVPLKPLFGPGYTGIRNLGNSCYLNSVVQVLFSIPDFQRKYVDKLEKIFQNAPTDPTQDFSTQVAKLGHGLLSGEYSKPALESGDGEQVPEQKEVQDGIAPRMFKALIGKGHPEFSTNRQQDAQEFFLHLINMVERNCRSSENPNEVFRFLVEEKIKCLATEKVKYTQRVDYIMQLPVPMDAALNKEELLEYEEKKRQAEEEKVPLPELVRAQVPFSSCLEAYGAPEQVDDFWSTALQAKSVAVKTTRFASFPDYLVIQIKKFTFGLDWVPKKLDVSIEMPEELDISQLRGTGLQPGEEELPDIAPPLVTPDEPKGSLGFYGNEDEDSFCSPHFSSPTSPMLDESVIIQLVEMGFPMDACRKAVYYTGNSGAEAAMNWVMSHMDDPDFANPLILPGSSGPGSTSAAADPPPEDCVTTIVSMGFSRDQALKALRATNNSLERAVDWIFSHIDDLDAEAAMDISEGRSAAESISESVPVGPKVRDGPGKYQLFAFISHMGTSTMCGHYVCHIKKEGRWVIYNDQKVCASEKPPKDLGYIYFYQRVVS
B2: human biotin-Cav3.2 1556-1602 III-IV linker peptide (peptide, UniProt O95180-2 1556-1602, looked up)
peptide: ENFHKCRQHQEAEEARRREEKRLRRLERRRRKAQRRPYYADYSPTRR-biotin
modifications: not fully specified
notes: Synthetic peptide containing the PY motif; also called long III-IV linker
B3: biotin-Tat-3.2 III-IV 1569-1589 linker peptide (peptide)
peptide: YGRKKRRQRRREARRREEKRLRRLERRRRKAQ
modifications: not fully specified (N-terminus); also: biotin, position not given here
notes: also called biotinylated Cav3.21569-1589 III-IV linker peptide; Tat-Cav3.21569-1589 III-IV linker peptide
B4: Tat-Cav3.2 1569-1589 III-IV linker peptide (non-biotinylated) (peptide)
peptide: YGRKKRRQRRREARRREEKRLRRLERRRRKAQ
notes: also called Tat-3.2-III-IV1569-1589 linker; Tat-3.2-III-IV
B5: human biotin-Cav3.2 1569-1586 short III-IV linker peptide (peptide, UniProt O95180-2 1569-1586, looked up)
peptide: EARRREEKRLRRLERRRR
modifications: also: biotin, position not given here
notes: range 1569-1586; Synthetic peptide lacking the PY motif; also called hCav3.21569-1586; 18 amino acid short peptide lacking the PY motif
B6: human biotin-Cav3.2 1860-1884 C-terminus peptide (peptide, UniProt O95180-2 1860-1884, looked up)
peptide: SNKEAREDAELDAEIELEMAQGPGS-biotin
modifications: not fully specified
notes: Control peptide; also called hCav3.21860-1884 (CT); Cav3.2 C-terminus peptide

Legend:
[1] = biological target: Cav3.2 channel (mouse, endogenous full-length channel from DRG, brain or dorsal horn) (mouse, UniProt O88427 1-2365, limits assumed); experiment: cell-based or functional assay
Sequence of Cav3.2 channel (mouse, endogenous full-length channel from DRG, brain or dorsal horn) (O88427 whole entry): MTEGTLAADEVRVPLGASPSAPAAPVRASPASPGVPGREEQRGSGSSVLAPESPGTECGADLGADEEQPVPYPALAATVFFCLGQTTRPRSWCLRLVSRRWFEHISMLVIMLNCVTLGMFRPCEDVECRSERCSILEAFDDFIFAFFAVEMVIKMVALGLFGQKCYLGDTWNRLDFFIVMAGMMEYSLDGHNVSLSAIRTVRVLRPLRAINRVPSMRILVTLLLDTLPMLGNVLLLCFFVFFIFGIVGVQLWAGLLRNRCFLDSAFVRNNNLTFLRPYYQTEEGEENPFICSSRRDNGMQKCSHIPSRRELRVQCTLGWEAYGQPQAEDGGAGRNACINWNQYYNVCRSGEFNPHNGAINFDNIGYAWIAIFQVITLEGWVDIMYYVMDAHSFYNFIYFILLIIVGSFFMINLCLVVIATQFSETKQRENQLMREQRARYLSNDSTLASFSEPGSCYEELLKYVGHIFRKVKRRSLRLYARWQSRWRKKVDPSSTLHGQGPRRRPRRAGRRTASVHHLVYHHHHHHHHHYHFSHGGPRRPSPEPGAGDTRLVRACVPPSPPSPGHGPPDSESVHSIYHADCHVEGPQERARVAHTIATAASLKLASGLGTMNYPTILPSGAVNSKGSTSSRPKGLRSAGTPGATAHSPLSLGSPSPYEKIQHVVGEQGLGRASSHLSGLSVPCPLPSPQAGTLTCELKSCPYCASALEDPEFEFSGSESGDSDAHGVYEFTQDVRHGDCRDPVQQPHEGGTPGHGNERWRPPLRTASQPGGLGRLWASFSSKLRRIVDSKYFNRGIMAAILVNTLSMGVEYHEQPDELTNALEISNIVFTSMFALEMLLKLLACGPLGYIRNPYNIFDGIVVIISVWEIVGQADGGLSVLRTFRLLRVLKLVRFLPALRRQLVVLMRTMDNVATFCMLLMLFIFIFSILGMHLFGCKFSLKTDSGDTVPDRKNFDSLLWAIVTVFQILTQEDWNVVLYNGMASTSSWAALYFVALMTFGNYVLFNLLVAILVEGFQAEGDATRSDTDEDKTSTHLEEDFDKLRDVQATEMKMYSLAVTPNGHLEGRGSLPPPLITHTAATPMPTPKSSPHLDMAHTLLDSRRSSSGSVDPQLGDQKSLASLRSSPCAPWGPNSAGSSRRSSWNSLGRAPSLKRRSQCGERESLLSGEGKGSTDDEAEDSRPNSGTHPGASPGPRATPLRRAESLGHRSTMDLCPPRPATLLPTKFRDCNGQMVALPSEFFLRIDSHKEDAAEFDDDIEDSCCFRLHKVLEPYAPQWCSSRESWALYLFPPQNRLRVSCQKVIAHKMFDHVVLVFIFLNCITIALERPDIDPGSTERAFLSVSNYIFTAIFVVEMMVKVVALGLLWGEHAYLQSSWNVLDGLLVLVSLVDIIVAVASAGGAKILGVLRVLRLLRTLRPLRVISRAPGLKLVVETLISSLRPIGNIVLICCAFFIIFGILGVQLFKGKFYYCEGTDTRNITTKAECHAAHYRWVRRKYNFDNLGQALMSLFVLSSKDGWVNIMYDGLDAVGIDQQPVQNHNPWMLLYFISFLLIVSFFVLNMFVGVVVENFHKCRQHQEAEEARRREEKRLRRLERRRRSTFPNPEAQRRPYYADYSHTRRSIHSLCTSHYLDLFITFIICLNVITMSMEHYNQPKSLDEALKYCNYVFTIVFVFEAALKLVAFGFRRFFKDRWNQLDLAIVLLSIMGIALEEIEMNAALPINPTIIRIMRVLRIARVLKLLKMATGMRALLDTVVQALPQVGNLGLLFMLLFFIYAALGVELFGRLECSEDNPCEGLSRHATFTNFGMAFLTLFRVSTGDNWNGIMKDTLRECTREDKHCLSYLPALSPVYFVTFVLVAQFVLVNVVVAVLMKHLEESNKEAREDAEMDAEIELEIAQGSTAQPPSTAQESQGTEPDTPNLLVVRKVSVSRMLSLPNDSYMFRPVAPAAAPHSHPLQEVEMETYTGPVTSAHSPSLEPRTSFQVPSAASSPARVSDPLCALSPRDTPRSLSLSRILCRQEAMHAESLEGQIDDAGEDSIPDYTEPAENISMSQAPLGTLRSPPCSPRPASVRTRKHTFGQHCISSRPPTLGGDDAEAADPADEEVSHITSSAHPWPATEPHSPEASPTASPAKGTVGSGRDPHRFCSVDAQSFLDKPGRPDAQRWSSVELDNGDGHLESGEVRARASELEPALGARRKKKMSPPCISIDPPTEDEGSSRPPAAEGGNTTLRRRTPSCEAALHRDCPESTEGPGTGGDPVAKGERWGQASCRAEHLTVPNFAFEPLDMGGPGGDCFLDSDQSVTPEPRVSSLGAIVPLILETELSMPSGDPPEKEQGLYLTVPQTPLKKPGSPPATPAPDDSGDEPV

[2] = biological target: B1; experiment: affinity precipitation from mouse brain lysate with biotinylated peptide, western blot for USP5
[3] = biological target: T1, WWP1 (mouse, endogenous, from DRG lysate) (mouse, UniProt Q8BZZ3 1-918); experiment: affinity precipitation from mouse DRG lysate with biotinylated peptide, western blot for WWP1
T1 construct: also called HECT E3 ligase WWP1

[4] = biological target: T2, recombinant human USP5 long isoform (human, UniProt P45974 1-858); experiment: in vitro binding assay of purified recombinant USP5 to biotinylated peptide, western blot
T2 construct: Purified recombinant protein bought from EnzoLifeSciences; also called hUSP5 long; USP5 long isoform (858 amino acids)
T2 sequence: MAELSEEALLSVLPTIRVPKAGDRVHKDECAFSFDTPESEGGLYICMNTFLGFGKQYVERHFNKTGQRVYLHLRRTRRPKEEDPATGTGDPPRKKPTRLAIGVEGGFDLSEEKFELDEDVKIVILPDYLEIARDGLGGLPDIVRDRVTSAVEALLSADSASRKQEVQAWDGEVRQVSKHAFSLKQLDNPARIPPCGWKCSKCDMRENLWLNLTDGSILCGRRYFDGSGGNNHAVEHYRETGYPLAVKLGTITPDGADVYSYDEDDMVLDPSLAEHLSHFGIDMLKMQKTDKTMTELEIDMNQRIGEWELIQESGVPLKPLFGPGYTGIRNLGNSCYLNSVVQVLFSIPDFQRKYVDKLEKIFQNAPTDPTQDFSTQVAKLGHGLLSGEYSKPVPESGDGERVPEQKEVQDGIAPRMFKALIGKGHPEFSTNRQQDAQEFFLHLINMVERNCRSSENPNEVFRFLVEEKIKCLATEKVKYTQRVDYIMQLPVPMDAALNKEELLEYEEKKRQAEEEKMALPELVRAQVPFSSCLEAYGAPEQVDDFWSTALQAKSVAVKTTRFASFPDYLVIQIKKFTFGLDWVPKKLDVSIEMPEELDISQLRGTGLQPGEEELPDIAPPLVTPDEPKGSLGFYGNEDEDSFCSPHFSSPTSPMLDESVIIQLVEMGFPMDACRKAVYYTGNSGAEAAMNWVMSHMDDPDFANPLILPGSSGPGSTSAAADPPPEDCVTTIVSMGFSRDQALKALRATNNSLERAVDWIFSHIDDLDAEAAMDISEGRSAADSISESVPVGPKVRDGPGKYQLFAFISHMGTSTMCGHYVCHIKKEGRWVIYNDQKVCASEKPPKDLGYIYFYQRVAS

[5] = biological target: T3, recombinant human USP5 short isoform (human, UniProt P45974-2 1-835); experiment: as above
T3 construct: Purified recombinant protein bought from EnzoLifeSciences; also called hUSP5 short; USP5 short isoform (835 amino acids)
T3 sequence (looked up): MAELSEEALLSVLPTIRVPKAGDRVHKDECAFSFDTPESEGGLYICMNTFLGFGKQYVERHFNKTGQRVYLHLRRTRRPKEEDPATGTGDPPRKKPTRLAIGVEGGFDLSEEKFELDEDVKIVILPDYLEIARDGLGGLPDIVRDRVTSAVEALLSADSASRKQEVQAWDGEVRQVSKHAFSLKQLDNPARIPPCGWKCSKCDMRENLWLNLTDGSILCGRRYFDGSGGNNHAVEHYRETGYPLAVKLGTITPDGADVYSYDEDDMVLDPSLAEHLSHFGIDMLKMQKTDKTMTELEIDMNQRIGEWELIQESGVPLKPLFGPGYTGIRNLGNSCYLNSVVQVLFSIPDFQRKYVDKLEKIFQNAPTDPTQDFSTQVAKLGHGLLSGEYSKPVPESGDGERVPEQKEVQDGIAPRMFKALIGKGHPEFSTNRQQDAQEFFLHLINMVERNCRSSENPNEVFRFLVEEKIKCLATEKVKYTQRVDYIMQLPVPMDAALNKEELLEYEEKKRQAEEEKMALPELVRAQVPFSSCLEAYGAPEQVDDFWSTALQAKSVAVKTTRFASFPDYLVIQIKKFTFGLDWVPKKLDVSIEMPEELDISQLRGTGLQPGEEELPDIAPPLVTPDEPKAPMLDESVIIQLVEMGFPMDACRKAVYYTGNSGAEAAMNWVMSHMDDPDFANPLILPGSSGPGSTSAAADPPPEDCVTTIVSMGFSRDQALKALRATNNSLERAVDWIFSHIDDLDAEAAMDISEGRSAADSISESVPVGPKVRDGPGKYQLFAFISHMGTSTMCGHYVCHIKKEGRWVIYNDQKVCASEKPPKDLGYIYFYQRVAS

[6] = biological target: B1; experiment: affinity precipitation from mouse brain lysate with biotinylated Tat peptide (25 µg), western blot for USP5
[7] = biological target: B1; experiment: in vitro competition by affinity precipitation from mouse brain lysate; competitor 50 µg against biotin-Tat peptide 25 µg

Binder	binding result [2]	binding result [3]	binding result [4]	binding result [5]	other results
B1	–	–	–	–	channel ubiquitination of Cav3.2 immunoprecipitates from CAD cells transfected with USP5-shRNA against USP15-shRNA [1]: ~5 fold
B2	binds	binds	binds	binds	–
B3	–	–	–	–	binding result [6]: binds
B4	–	–	–	–	binding result [7]: binds
B5	–	binds	–	–	–
B6	no binding	–	no binding	no binding	–
